Data: patent CN113929774A (INST MICROBIOLOGY CAS, dated 2022)

Biological target: SARS-CoV-2野生型(WT)活病毒的S蛋白 (hCoV-19/China/CAS-B001/2020) (SARS-CoV-2, UniProt P0DTC2 14-1273)
Assay: cell-based or functional assay

B1: 9K抗体 (antibody, V domains shown)
VH: EVQLVESGGGVVQPGRSLGLSCAVSGFTFSSYAMHWVRQAPGKGLEWVALISNDGTIDSYADSVKGRFTISRDNSKNTLYLRMSSLRAEDTAVYYCARDKEQLVPTFDYWGQGTLVTVSS
VL: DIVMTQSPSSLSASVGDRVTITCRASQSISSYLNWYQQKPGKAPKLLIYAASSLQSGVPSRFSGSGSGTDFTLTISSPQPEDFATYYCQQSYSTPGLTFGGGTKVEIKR
中和滴度(半抑制浓度，IC50), live virus CPE assay on Vero E6 cells: 49.4 µg/mL
